According to paper PMC3654694 (Immunity, 2012):
Where two headings read alike, the source gives them in different places.

T1: STING CTD (STINGΔ1-138, AA139-379), His-tag removed (human), Q86WV6
T1 chain: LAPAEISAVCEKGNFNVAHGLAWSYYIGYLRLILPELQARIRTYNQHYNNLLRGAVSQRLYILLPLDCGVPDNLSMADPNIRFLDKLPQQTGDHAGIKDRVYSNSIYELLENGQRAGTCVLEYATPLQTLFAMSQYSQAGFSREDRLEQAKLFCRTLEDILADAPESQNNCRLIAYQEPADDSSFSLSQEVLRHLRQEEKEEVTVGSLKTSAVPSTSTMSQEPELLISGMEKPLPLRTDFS

T2: STING CTD WT (AA139-379) with His-tag (human), Q86WV6
T2 chain: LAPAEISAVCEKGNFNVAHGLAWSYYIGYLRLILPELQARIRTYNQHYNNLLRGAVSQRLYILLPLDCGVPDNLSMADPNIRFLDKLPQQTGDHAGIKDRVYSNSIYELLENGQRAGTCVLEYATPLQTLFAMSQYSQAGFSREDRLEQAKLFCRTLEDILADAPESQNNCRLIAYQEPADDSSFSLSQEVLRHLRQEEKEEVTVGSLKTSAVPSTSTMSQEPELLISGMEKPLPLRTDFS

B1: STINGΔ1-148 (AA149-379) (domain or fragment, human, UniProt Q86WV6 149-379, looked up)
chain: EKGNFNVAHGLAWSYYIGYLRLILPELQARIRTYNQHYNNLLRGAVSQRLYILLPLDCGVPDNLSMADPNIRFLDKLPQQTGDHAGIKDRVYSNSIYELLENGQRAGTCVLEYATPLQTLFAMSQYSQAGFSREDRLEQAKLFCRTLEDILADAPESQNNCRLIAYQEPADDSSFSLSQEVLRHLRQEEKEEVTVGSLKTSAVPSTSTMSQEPELLISGMEKPLPLRTDFS
B2: STING CTD (STINGΔ1-138, AA139-379), His-tag removed, Q86WV6 139-379 (domain or fragment)
chain: LAPAEISAVCEKGNFNVAHGLAWSYYIGYLRLILPELQARIRTYNQHYNNLLRGAVSQRLYILLPLDCGVPDNLSMADPNIRFLDKLPQQTGDHAGIKDRVYSNSIYELLENGQRAGTCVLEYATPLQTLFAMSQYSQAGFSREDRLEQAKLFCRTLEDILADAPESQNNCRLIAYQEPADDSSFSLSQEVLRHLRQEEKEEVTVGSLKTSAVPSTSTMSQEPELLISGMEKPLPLRTDFS
B3: STING CTD K150A (domain or fragment, human, UniProt Q86WV6 139-379, looked up)
chain: LAPAEISAVCEAGNFNVAHGLAWSYYIGYLRLILPELQARIRTYNQHYNNLLRGAVSQRLYILLPLDCGVPDNLSMADPNIRFLDKLPQQTGDHAGIKDRVYSNSIYELLENGQRAGTCVLEYATPLQTLFAMSQYSQAGFSREDRLEQAKLFCRTLEDILADAPESQNNCRLIAYQEPADDSSFSLSQEVLRHLRQEEKEEVTVGSLKTSAVPSTSTMSQEPELLISGMEKPLPLRTDFS
B4: STING CTD WT (AA139-379) with His-tag, Q86WV6 139-379 (domain or fragment)
chain: LAPAEISAVCEKGNFNVAHGLAWSYYIGYLRLILPELQARIRTYNQHYNNLLRGAVSQRLYILLPLDCGVPDNLSMADPNIRFLDKLPQQTGDHAGIKDRVYSNSIYELLENGQRAGTCVLEYATPLQTLFAMSQYSQAGFSREDRLEQAKLFCRTLEDILADAPESQNNCRLIAYQEPADDSSFSLSQEVLRHLRQEEKEEVTVGSLKTSAVPSTSTMSQEPELLISGMEKPLPLRTDFS
B5: STING CTD K150L (domain or fragment, human, UniProt Q86WV6 139-379, looked up)
chain: LAPAEISAVCELGNFNVAHGLAWSYYIGYLRLILPELQARIRTYNQHYNNLLRGAVSQRLYILLPLDCGVPDNLSMADPNIRFLDKLPQQTGDHAGIKDRVYSNSIYELLENGQRAGTCVLEYATPLQTLFAMSQYSQAGFSREDRLEQAKLFCRTLEDILADAPESQNNCRLIAYQEPADDSSFSLSQEVLRHLRQEEKEEVTVGSLKTSAVPSTSTMSQEPELLISGMEKPLPLRTDFS
B6: STING CTD K150R (domain or fragment, human, UniProt Q86WV6 139-379, looked up)
chain: LAPAEISAVCERGNFNVAHGLAWSYYIGYLRLILPELQARIRTYNQHYNNLLRGAVSQRLYILLPLDCGVPDNLSMADPNIRFLDKLPQQTGDHAGIKDRVYSNSIYELLENGQRAGTCVLEYATPLQTLFAMSQYSQAGFSREDRLEQAKLFCRTLEDILADAPESQNNCRLIAYQEPADDSSFSLSQEVLRHLRQEEKEEVTVGSLKTSAVPSTSTMSQEPELLISGMEKPLPLRTDFS

Assays:
[1] = target: the molecule itself
[2] = target: T1, STING CTD (STINGΔ1-138, AA139-379), …; assay: AUC; details: remark: other sources report otherwise
[3] = target: the molecule itself; assay: SEC
[4] = target: T2, STING CTD WT (AA139-379) with His-tag …; assay: SEC; details: remark: other sources report otherwise

| Binder | stoichiometry N [3] | further results |
| --- | --- | --- |
| B1 |  | stoichiometry N [1]: 2 |
| B2 |  | stoichiometry N [2]: 2 |
| B3 | 2 |  |
| B4 |  | stoichiometry N [4]: 2 |
| B5 | 2 |  |
| B6 | 2 |  |
